This test deals with T1, Cav3.2-GFP tagged calcium channel (human, UniProt O95180 1-2353).
T1 construct: also called Cav3.2 T-type calcium channel; source: tsA-201 cells, transfected (lipofectamine 2000), in lysate; not shown: GFP, C-terminal, kept
Nature of the test: co-IP; tsA-201 cells co-expressing Cav3.2-GFP and mCherry-USP5 (WT or K113R); lysed in modified RIPA buffer (50 mM Tris, 100 mM NaCl, 0.2% Triton X-100, 0.2% NP-40, 10 mM EDTA, pH 7.5); Cav3.2-GFP precipitated with anti-GFP antibody and Protein G/A beads overnight at 4 °C; blot probed with mCherry antibody; densitometry. The settings on record: partners not purified.

T1 sequence (O95180 whole entry): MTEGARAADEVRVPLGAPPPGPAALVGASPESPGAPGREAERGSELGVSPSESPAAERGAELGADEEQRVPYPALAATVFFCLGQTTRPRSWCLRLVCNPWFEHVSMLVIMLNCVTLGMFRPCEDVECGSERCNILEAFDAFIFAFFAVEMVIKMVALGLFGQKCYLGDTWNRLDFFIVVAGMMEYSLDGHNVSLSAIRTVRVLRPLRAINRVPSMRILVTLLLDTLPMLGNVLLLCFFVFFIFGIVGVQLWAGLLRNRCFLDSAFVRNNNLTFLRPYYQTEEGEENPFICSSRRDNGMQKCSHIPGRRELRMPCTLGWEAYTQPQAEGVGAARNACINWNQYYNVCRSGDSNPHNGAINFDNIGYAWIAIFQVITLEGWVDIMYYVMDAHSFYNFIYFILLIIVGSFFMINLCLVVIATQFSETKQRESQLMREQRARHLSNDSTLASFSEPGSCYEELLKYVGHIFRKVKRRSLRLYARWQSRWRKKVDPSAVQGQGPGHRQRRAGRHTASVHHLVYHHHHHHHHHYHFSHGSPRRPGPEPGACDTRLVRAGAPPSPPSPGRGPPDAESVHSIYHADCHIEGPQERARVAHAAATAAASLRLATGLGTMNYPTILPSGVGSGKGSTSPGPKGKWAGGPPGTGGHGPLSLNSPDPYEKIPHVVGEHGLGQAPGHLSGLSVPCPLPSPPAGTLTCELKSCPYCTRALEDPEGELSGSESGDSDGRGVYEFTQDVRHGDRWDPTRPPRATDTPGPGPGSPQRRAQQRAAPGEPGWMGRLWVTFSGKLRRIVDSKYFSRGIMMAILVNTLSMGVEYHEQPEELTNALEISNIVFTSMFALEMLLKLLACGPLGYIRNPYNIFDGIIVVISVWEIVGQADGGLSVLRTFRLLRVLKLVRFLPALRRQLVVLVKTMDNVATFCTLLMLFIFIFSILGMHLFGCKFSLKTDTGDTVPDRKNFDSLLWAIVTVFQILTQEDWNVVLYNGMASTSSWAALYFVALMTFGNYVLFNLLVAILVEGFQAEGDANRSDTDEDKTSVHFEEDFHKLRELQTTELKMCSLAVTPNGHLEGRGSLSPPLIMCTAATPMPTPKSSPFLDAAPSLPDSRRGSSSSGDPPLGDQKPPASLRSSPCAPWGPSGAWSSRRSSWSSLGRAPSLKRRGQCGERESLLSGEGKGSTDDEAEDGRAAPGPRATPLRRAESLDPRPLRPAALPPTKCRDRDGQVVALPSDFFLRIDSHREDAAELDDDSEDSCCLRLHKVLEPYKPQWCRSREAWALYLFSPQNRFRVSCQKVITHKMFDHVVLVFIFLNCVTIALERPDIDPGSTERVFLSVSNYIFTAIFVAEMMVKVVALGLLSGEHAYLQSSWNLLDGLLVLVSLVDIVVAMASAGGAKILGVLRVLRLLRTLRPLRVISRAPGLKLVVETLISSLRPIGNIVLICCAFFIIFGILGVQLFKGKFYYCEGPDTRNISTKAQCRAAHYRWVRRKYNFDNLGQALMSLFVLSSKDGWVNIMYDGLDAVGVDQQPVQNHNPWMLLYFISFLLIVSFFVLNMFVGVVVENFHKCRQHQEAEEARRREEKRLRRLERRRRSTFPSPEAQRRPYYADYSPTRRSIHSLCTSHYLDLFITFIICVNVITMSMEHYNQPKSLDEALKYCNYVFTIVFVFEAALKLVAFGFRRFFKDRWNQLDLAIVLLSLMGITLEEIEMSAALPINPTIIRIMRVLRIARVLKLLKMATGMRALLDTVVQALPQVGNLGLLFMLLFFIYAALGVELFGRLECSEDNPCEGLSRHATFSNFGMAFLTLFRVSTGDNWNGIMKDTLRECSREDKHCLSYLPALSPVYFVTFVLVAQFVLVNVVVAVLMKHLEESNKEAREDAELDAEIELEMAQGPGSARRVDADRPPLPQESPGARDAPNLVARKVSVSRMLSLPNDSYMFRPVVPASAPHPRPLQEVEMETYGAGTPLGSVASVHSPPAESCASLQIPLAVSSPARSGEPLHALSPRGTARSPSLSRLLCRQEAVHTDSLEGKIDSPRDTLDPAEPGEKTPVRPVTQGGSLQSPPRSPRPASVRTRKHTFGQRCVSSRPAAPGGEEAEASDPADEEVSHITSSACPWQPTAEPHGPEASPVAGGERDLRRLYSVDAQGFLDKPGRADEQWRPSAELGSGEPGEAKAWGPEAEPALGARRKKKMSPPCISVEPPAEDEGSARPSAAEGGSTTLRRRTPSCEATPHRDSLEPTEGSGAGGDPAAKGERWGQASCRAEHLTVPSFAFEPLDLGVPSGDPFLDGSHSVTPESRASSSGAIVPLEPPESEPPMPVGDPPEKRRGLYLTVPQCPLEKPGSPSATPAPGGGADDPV

B1: mCherry tagged USP5-K113R mutant (enzyme, human, UniProt P45974-1 1-858, looked up)
chain: MAELSEEALLSVLPTIRVPKAGDRVHKDECAFSFDTPESEGGLYICMNTFLGFGKQYVERHFNKTGQRVYLHLRRTRRPKEEDPATGTGDPPRKKPTRLAIGVEGGFDLSEERFELDEDVKIVILPDYLEIARDGLGGLPDIVRDRVTSAVEALLSADSASRKQEVQAWDGEVRQVSKHAFSLKQLDNPARIPPCGWKCSKCDMRENLWLNLTDGSILCGRRYFDGSGGNNHAVEHYRETGYPLAVKLGTITPDGADVYSYDEDDMVLDPSLAEHLSHFGIDMLKMQKTDKTMTELEIDMNQRIGEWELIQESGVPLKPLFGPGYTGIRNLGNSCYLNSVVQVLFSIPDFQRKYVDKLEKIFQNAPTDPTQDFSTQVAKLGHGLLSGEYSKPVPESGDGERVPEQKEVQDGIAPRMFKALIGKGHPEFSTNRQQDAQEFFLHLINMVERNCRSSENPNEVFRFLVEEKIKCLATEKVKYTQRVDYIMQLPVPMDAALNKEELLEYEEKKRQAEEEKMALPELVRAQVPFSSCLEAYGAPEQVDDFWSTALQAKSVAVKTTRFASFPDYLVIQIKKFTFGLDWVPKKLDVSIEMPEELDISQLRGTGLQPGEEELPDIAPPLVTPDEPKGSLGFYGNEDEDSFCSPHFSSPTSPMLDESVIIQLVEMGFPMDACRKAVYYTGNSGAEAAMNWVMSHMDDPDFANPLILPGSSGPGSTSAAADPPPEDCVTTIVSMGFSRDQALKALRATNNSLERAVDWIFSHIDDLDAEAAMDISEGRSAADSISESVPVGPKVRDGPGKYQLFAFISHMGTSTMCGHYVCHIKKEGRWVIYNDQKVCASEKPPKDLGYIYFYQRVAS
notes: Homo sapiens ubiquitin specific peptidase 5 (USP5), open reading frame of GenBank NM_001098536 in pcDNA3.1, point mutant made by PCR; also called SUMO-resistant USP5-K113R; SUMO2/3 resistant USP5-K113R mutant; source: tsA-201 cells, transfected (lipofectamine 2000), in lysate; not shown: mCherry, N-terminal, kept
Consider B1, for which the “fold change of co-precipitated amount against USP5-WT” value was about 2.2 fold.

Source of the values: PMC6712834, “SUMOylation regulates USP5-Cav3.2 calcium channel interactions” (Molecular Brain, 2019).
